Data from patent publication US20250026813A1 (published 2025).
Where a chain is given by its changes, count along the chain named.

B1: YANG-2206 (antibody, V domains shown)
VH: QIQLVQSGAEVKKPGASVKLSCKTSGYTFTSYYMVWVRQAPGQGLEWMGIIKPSGGNTIFAQKFQGRVTMTRDTSTNTVYMDLNSLRSEDTAVYYCARTGDRAFDVWGHGTMVTVSS
VL: QSVLTQPPSVSAAPGQKVTISCSGSSSNIGNNYVSWYQQFPGTAPKLLIYDNNKRPSGIPDRFSGSKSGTSATLGITGLQTGDEADYYCGTWDSSLGAGVFGGGTKVTVL
B2: YANG-2208 (antibody, V domains shown)
VH: B1 VH with K12R, K19R, L20F, T28I, S31N, F60Y, S85N, Y95F, H109Q
VL: B1 VL with V10M, S25N, Y33F, Q38R, G97S, V107L
B3: YANG-2207 (antibody, V domains shown)
VH: B1 VH with I2M, L20I, S31N, F60Y, M81L, N84S, D101N
VL: B1 VL with Y33F, V107L
B4: YANG-2302 (antibody, V domains shown)
VH: QVQLVQSGAEVRKPGASVKVSCKVSGYTLPELAIHWVRQAPGKGLEWMGGFIPEDGDTIYAQKFQGRVTMTEDTSTDTAYMDLTSLRSEDAAVYYCTSGWAAPGYNYGMAVWGQGTTVTVSS
VL: EVVLTQSPGTLSLSSGERATLSCRASQSVSSNYLAWYQKKPGQAPRLLIYGASSRVTGIPDRFGGSGSGTDFTLTISRLEPEDFAVYYCQQYDASPYSFGQGTKLDIK
B5: IMPI-029 (antibody, V domains shown)
VH: EVQLVESGGGLIQPGGSLRLSCAASGVTVSSNYMNWVRQAPGKGLEWVSVIYSGGSTYYADSVKGRFTISRDNSKNTLFLQMNSLRAEDSAVYYCARDLGPYGVDVWGQGTTVTVSS
VL: DIQLTQSPSFLSASVGDRVTITCWASQGISSYLAWYQQKPGKAPKLLIYAASTLQSGVPSRFSGSGSGTEFTLTISSLQPEDFATYYCQELNSYPLTFGQGTRLEIK
B6: IMPI-017 (antibody, V domains shown)
VH: B5 VH with S25A, V27L, A40V, F79Y, S90T, P101T, Y102L, V104M
VL: B5 VL with S31T, E90Q, P95L, L96P, R103K, L104V
B7: IMPI-037 (antibody, V domains shown)
VH: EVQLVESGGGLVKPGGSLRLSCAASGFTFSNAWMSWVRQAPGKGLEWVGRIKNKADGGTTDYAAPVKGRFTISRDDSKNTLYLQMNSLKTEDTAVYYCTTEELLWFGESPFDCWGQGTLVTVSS
VL: B5 VL with S30N, A84T, E90Q, L91F, S93D, L96R, Q100P, R103K, L104V
B8: IMPI-047 (antibody, V domains shown)
VH: B5 VH with V27F, F79Y, A87T, S90T, G100V, P101A, V104M
VL: B5 VL with L46V, E90L, Y94N, Q100G, R103K, L104V
B9: IMPI-005 (antibody, V domains shown)
VH: B5 VH with V27F
VL: B5 VL
B10: IMPI-060 (antibody, V domains shown)
VH: B5 VH with N35S, Y58F, F79Y, S90T, G100S, P101Y, V104M
VL: B5 VL with R61K, E90Q, L96S, T97S, R103K
B11: IMPI-056 (antibody, V domains shown)
VH: B5 VH with V27L, G44K, Y58F, K64R
VL: B5 VL with E90Q
B12: IMPI-013 (antibody, V domains shown)
VH: EVQLVESGGGLVQPGRSLRLSCAASGFTFDDYAMHWVRQTPGKGLEWVSGISWNSGSIGYADSVKGRFTISRDNAKNSLYLQMNSLRAEDTALYYCTKDLGLGIGFYYGLDVWGQGTTVTVSS
VL: AIQMTQSPSSLSTSVGDRVTITCRASQGIRNDLGWYQLKPGKAPKLLIYDASTLQSGVPSRFSGSGSGTDFTLTISSLEPEDLATYYCLHHYTYPWTFGHGTKVELK
B13: IMPI-059 (antibody, V domains shown)
VH: EVQLVESGGGLIQPGGSLRLSCAASGFTVSSIYMSWVRQAPGKGLEWVSIIYSRGSTDYADSVKGRFTISRDISKNTLYLQMNSLRAEDTAVYYCARDGTMVRGVHAFDIWGQGTMVTVSS
VL: DIQMTQSPPSLSASIGDRVTITCQASQDISNYLNWYQQKPGKAPKLLIYDASNLETGVPSRFSGSGSGTDFTLTISNLQPEDIVTYYCQQYDNLPSSFGQGTKLEIK
B14: IMPI-054 (antibody, V domains shown)
VH: EVQLVESGGGLIQPGGSLRLSCAASGLTVSSNYMSWVRQAPGKGLEWVSIIYSGGSTYYADSVKGRFTISRDNSKNTLYLQMNSLRAEDTAVYYCARLGGYYYYGMDVWGQGTTVTVSS
VL: DIQMTQSPSSLSASVGERVTITCQASQDIRNYLNWYQKKPGKAPKLLIYDSSNLETGVPSRFSGSGSGTDFTFTISSLQPEDIATYYCQQYDNLPITFGQGTRLEIK
B15: IMPI-055 (antibody, V domains shown)
VH: QVQLVQSGAEVKKPGASVKVSCKASGYTFTSYDINWVRQATGQGLEWMGWMNPNSGNTGYAQKFQGRVTMTRDTSINTAYMELSSLRSEDTAVYFCARGGRYCSDVTCYSGEPFDYWGQGTLVTVSS
VL: EIMLTQSPDFQSVTPKEKVTITCRASQSIGSSLHWYQQKPDQSPKLLIKFASQSISGVPSRFSGSGSGTDFTLTINSLEAEDAAAYYCHQSSSLPHTFGPGTKVEIK
B16: YANG-2301 (antibody, V domains shown)
VH: QVHLIQSGAEVKKPGASVKVSCKVSGYTLIEVSVHWVRQAPGKGLEWMGGFDPEAAETIYAQKFQGRVTMTEDTSTDTAYMDLSSLKSEDSAVYYCAIGPAVTGRNSGEYYYYYGMDVWGQGTTVTVAS
VL: EIVMTQSPATLSVSPGERATLSCRASQSVNSNLAWYQQKPGQAPRLLIYAVSTRATGLPARFSGSGSGTEFTLTISSLQSEDFVVYYCHQYNNWPLTFGGGTKVEIK
B17: YANG-2303 (antibody, V domains shown)
VH: QVQLVQSGAEVKKPGASVRVSCKVSGYTLPELAIHWVRQAPGKGLEWMGGFDPEDGETIYAQKFQGRVIMTEDTSTDTAYMDLSSLRSEDTAVYYCVKTWAAPGYNYGLDTWGQGTTVTVSS
VL: EIVLTQSPGILSLSPGESATLSCRASQSIASNYLAWFQQKPGQAPRLLIYGASSRAAGFPDRFSGSGSGTDFTLTIKRLEPEDSAVYYCQHYGSSPCSFGQGTNLEIK
B18: IMPI-004 (antibody, V domains shown)
VH: QVQLVESGGGVVQPGRSLRLSCAASGFTFSSYGMHWVRQAPGKGLEWVAVIWYDGGNKYYADSVKGRFTISRDNSKNTLYLQMNSLRAEDTAVYYCARVNVLMGYGMDVWGQGTTVTVSS
VL: EIVLTQSPGTLSLSPGDKATLSCRASQSIISSFLAWYQQKPGQAPRLLIYGASSRATGIPDRFSGSGSGTDFTLTISRLEPEDFAVYYCQQYGSSLTFGGGTKVEIK

Tests used:
[1] = target: SARS-CoV-2 spike protein bearing furin mutation and truncation in retention sequence, on pseudovirus (SARS-CoV-2, UniProt P0DTC2 14-1255); assay: cell-based or functional assay
[2] = target: full soluble spike trimer of SARS-CoV-2 virus (stabilised, in-house) (SARS-CoV-2, UniProt P0DTC2 14-1208; P10104 458-484)
[3] = target: SARS-CoV-2 spike protein trimer stabilised by double proline (PP) mutation (FIG. 2B sequence) with C (SARS-CoV-2, UniProt P0DTC2 14-1208; P10104 458-484)

Row | Binder | pseudovirus neutralisation IC50 [1] | IC50 [2] | also measured
1 | B1 | 3.96 nM |  | 
2 | B2 | 4.68 nM |  | 
3 | B3 | 2.59 nM |  | 
4 | B4 | 0.61 nM |  | 
5 | B5 |  | 3.31 nM | 
6 | B6 |  | 3.15 nM | 
7 | B7 |  | 13.7 nM | 
8 | B8 |  | 7.3 nM | 
9 | B9 |  | 13.1 nM | 
10 | B10 |  | 5.26 nM | 
11 | B11 |  | 3.73 nM | 
12 | B12 |  |  | Kd [3]: 0.299 nM
13 | B13 |  | 8.38 nM | 
14 | B14 |  | 11.6 nM | 
15 | B15 |  | 4.5 nM | 
16 | B16 | 0.53 nM |  | 
17 | B17 | 0.48 nM |  | 
18 | B18 |  | 4.09 nM | 
